The record followed here is patent publication US8741844B2, “Use of mutated antithrombins for treating or preventing coagulation disorders” (Universite Paris-Sud XI, priority 2007, dated 2014).

Assay [1] addresses T1, factor Xa (Homo sapiens, UniProt P00742).
T1 construct: purchased Kordia
Nature of the assay: Kinetic assay of factor Xa inhibition by antithrombins in a purified system (chromogenic substrate, continuous or discontinuous). The conditions noted are these: with or without pentasaccharide; compared with plasma / wild type antithrombin. The assay is classed as biochemical. Here is the method:
Briefly, factor Xa is incubated with an excess of tested antithrombins (corresponding to plasma antithrombin, or wild type antithrombin or mutated antithrombins and varying in each assay realized) in the presence or absence of pentasaccharide (Fondaparinux sodique, Arixtra®, GlaxoSmithKline) and the factor Xa residual activity is measured as a function of time. The pentasaccharide is added in excess in the reaction media so that every tested antithrombin is bound to the pentasaccharide. In the absence of pentasaccharide, polybrene is added in order to neutralize any sulfated glycosaminoglycan that may be present in the reaction media. The residual factor Xa activity is measured as the increase in absorbance at 405 nm resulting from cleavage of the chromogenic substrate (S2765 or S2222, Chromogenix) using a microplate reader (Dynatech MR 5000). The analysis of the data is performed using the GraphPad Prism version 3 software. Absorbance recording is continuous or discontinuous according to the expected inhibition rate constant (kon).
The inhibition rate constant (kon) is the second order rate constant given in M^−1·s^−1 which define the velocity of stable complex formation between protease and antithrombin (higher is the kon value, faster will the complex be established).
When the expected kon is lower than 10^4 M^−1·s^−1 the discontinuous method is used. Factor Xa (0.2 to 1 μM, or 0.1 to 1 μM) is incubated with tested antithrombins (0.2 to 10 μM, or 1 to 10 μM) in the presence of pentasaccharide (10 to 100 μM) or polybrene (100 μg/ml) in a final volume of 10 μl for 10 seconds to 5 hours, or 10 seconds to 24 hours. At the end of this incubation period, 190 μl of kinetic buffer containing 200 μM substrate is added and absorbance at 405 nm is recorded.
The kinetic rate constant (k) is estimated by fitting the substrate hydrolysis initial rate curve to equation (1) using non-linear regression with v0 and v∞ being the substrate hydrolysis rate at time to or too respectively. […] (1)
The inhibition rate constant (kon) is calculated from the rate constant (k) using equation (2) where AT is the tested antithrombin concentration. k=AT·kon (2)
When the expected kon is higher than 10^4 M^−1·s^−1′ the continuous method is used. The tested antithrombin (0.01 to 1 μM, or 0.1 to 1 μM) is incubated with the substrate (200 μM) in the presence of pentasaccharide or polybrene in a final volume of 100 μL, or 190 μl, and the reaction is started by addition of 100 μL, or 10 μL, of factor Xa (2 nM or 10 nM). The rate constant (k) is obtained by fitting the substrate hydrolysis curve to equation (3) or (3′) using non-linear regression analysis where A0 is the absorbance at t0, and vi and vs are respectively the initial and final rates of substrate hydrolysis in the absence of tested antithrombin. A405=A0+vi·(1−exp(−k·t))/k. (3) Equation (3′) is also used, particularly in presence of plasma. A405=A0+vs*t+(vi−vs)*(1−exp(−k·t))/k. (3′)
The inhibition rate constant (kon) is calculated from the kinetic constant (k) using equation (4) that takes into account the competitive effect of the substrate, with S being the initial substrate concentration, Km, the Michaelis constant for factor Xa-substrate interaction, AT the tested antithrombin concentration. k=(kon/(1+S/Km))·[AT] (4)
Mutated antithrombins and wild type AT inhibitory activity are measured in the same conditions and compared with plasma AT inhibitory activity.

Assay [2] concerns pentasaccharide bound plasma antithrombin (plasma anti-factor Xa activity), HUVEC surface. Nature of the assay: Rotachrom heparin anti factor Xa assay after pre-incubation of pentasaccharide containing plasma-mutated antithrombin mixture on HUVEC surface. The assay is classed as cell-based, human. The conditions noted are these: over-dosing conditions. How it is done: Finally to evaluate effect of mutated antithrombin on anti-factor Xa activity in conditions as close as possible to in vivo conditions, Rotachrom® heparin method is used to test anti-factor Xa activity in plasma pre-incubated with mutated antithrombin (0-0.6 g/L, preferably 0.15-0.6 g/L in kinetic buffer), during 30 min at 37° C. on human umbilical vein endothelial cells (HUVEC) in culture. Cells are inoculated at 20 000 cells/cm^2 in 96 well plate and grown to confluence for 24 hours in EGM-2 media (Clonetics, Cambrex). After two wash with phosphate buffer saline (Gibco, Invitrogen) cells are starved for 4 hours in EBM-2 media (Clonetics, Cambrex) and then washed again twice in phosphate buffer saline to prevent excess contamination with heparin present in the culture medium. HUVEC coated wells are then used for 30 min incubation of pentasaccharide containing plasma-mutated antithrombin mixture (125 μl/cm^2) before Rotachrom® heparin assay
To evaluate the role of blood-vessel endothelium, or more precisely, the role of glycosamino-glycans exposed on endothelial cell surface, on competition between natural antithrombin and mutated antithrombin for pentasaccharide binding, the same experiment as described above is done but with pre-incubation of pentasaccharide containing plasma-mutated antithrombin mixture on HUVEC surface (FIG. 8).

Assay [3] in a line: Heparin affinity column elution with NaCl gradient. Type of assay: binding. How it is done:
Conditioned media are thawed, pooled, salt concentration adjusted to 0.4 M NaCl and then applied on an heparin immobilized column (Hitrap Heparin 5 ml or Heparin-sepharose CL6B 50 ml, GE Biological) equilibrated with 10 mM Tris, or with 20 mM phosphate buffer, 0.4 M NaCl and 0.1 mM EDTA, pH 7.4. The bound proteins are eluted in the same buffer with a gradient from 0.4 M to 2 M NaCl. The fractions eluted from 0.8 M NaCl and more contained only wild type antithrombin or mutated antithrombins with high heparin affinity. […] The collected fractions are pooled and the salt concentration is decreased either by over night dialysis against 10 mM Tris, or 20 mM phosphate, and 0.1 M NaCl, pH 7.4 at 4° C. or applied on an HiPrep 26/10 desalting column equilibrated with 10 mM Tris, or 20 mM phosphate, and 0.1 M NaCl, pH 7.4. The antithrombin is then concentrated by ion exchange chromatography using a “Resource Q” 1 ml column (GE, Biological) equilibrated with 10 mM Tris, or 20 mM phosphate, and 0.1 M NaCl, pH 7.4 and eluted in the same buffer with a NaCl gradient from […] to 0.5 M or 20 mM to 0.5 M. The antithrombin concentration in each elution fraction is estimated by absorbance at 280 nm with an absorption coefficient ε=0.65 g^−1·l·cm^−1 and the integrity of purified wild type antithrombin or mutated antithrombins is tested by western blotting using the same couple of antibodies as described before, and electrophoresis on 10% acrylamide/bisacrylamide gel in native and denaturing conditions followed by coomassie brilliant blue R-250 staining (FIG. 4). Then, the antithrombin preparation is aliquoted and stored at −80° C. before use for functional assay. The same procedure is used to purify plasma antithrombin (used as internal reference) from human plasma.

Residue numbers refer to the chain shown, from its start. Numbers in names are those of the source.

T1 sequence (P00742 235-488 limits assumed): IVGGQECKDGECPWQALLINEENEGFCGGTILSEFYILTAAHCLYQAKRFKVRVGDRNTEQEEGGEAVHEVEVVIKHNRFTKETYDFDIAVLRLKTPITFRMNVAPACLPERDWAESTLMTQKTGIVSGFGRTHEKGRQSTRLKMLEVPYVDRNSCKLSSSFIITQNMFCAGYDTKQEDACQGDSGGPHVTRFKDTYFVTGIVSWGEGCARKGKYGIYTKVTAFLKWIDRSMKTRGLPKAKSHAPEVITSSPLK
T1 sequence (P00742 41-179 partner limits assumed): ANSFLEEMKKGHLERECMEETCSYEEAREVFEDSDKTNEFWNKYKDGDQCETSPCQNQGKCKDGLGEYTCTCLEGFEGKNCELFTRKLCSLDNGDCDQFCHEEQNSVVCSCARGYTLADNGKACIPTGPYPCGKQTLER

With “AT-R393H: human antithrombin (SEQ ID NO:2) with substitution of the amino acid at position 393 by Histidine”, the “factor Xa inhibitory activity” value in assay [1] is listed as “negligible”.

B1: AT-Pro394: human antithrombin with insertion of a Proline between positions 393 and 394 (protein, listed as Homo sapiens)
chain: HGSPVDICTAKPRDIPMNPMCIYRSPEKKATEDEGSEQKIPEATNRRVWELSKANSRFATTFYQHLADSKNDNDNIFLSPLSISTAFAMTKLGACNDTLQQLMEVFKFDTISEKTSDQIHFFFAKLNCRLYRKANKSSKLVSANRLFGDKSLTFNETYQDISELVYGAKLQPLDFKENAEQSRAAINKWVSNKTEGRITDVIPSEAINELTVLVLVNTIYFKGLWKSKFSPENTRKELFYKADGESCSASMMYQEGKFRYRRVAEGTQVLELPFKGDDITMVLILPKPEKSLAKVEKELTPEVLQEWLDELEEMMLVVHMPRFRIEDGFSLKEQLQDMGLVDLFSPEKSKLPGIVAEGRDDLYVSDAFHKAFLEVNEEGSEAAASTAVVIAGRPSLNPNRVTFKANRPFLVFIREVPLNTIIFMGRVANPCVK
For B1, the “effect on anti-factor Xa activity of pentasaccharide” value in assay [2] is “decreases anti-factor Xa activity”. For the same molecule, the “factor Xa inhibitory activity” value in assay [1] is listed as “negligible”.

B2: AT-N135Q-ΔR393: human antithrombin with deletion of position 393 and substitution at 135 by Glutamine (protein, listed as Homo sapiens)
chain: HGSPVDICTAKPRDIPMNPMCIYRSPEKKATEDEGSEQKIPEATNRRVWELSKANSRFATTFYQHLADSKNDNDNIFLSPLSISTAFAMTKLGACNDTLQQLMEVFKFDTISEKTSDQIHFFFAKLNCRLYRKAQKSSKLVSANRLFGDKSLTFNETYQDISELVYGAKLQPLDFKENAEQSRAAINKWVSNKTEGRITDVIPSEAINELTVLVLVNTIYFKGLWKSKFSPENTRKELFYKADGESCSASMMYQEGKFRYRRVAEGTQVLELPFKGDDITMVLILPKPEKSLAKVEKELTPEVLQEWLDELEEMMLVVHMPRFRIEDGFSLKEQLQDMGLVDLFSPEKSKLPGIVAEGRDDLYVSDAFHKAFLEVNEEGSEAAASTAVVIAGSLNPNRVTFKANRPFLVFIREVPLNTIIFMGRVANPCVK
As for B2, in assay [3], the “elution from heparin affinity column compared with wild type antithrombin” value is listed as “higher ionic strength than wild type antithrombin”. For the same molecule, the “factor Xa inhibitory activity” value in assay [1] is “negligible”.

B3: AT-N135Q-ΔS394: human antithrombin with deletion of position 394 and substitution at 135 by Glutamine (protein, listed as Homo sapiens)
chain: B2 chain with S393R
B3: in assay [3], the “elution from heparin affinity column compared with wild type antithrombin” value was “higher ionic strength than wild type antithrombin”. Further, in assay [1], the “factor Xa inhibitory activity” value is given as “negligible”.

B4: AT-ΔS394: human antithrombin with deletion of the amino acid at position 394 (protein, listed as Homo sapiens)
chain: B2 chain with Q135N, S393R
B4: the “factor Xa inhibitory activity” value in assay [1] was “negligible”.

B5: AT-ΔR393: human antithrombin with deletion of the amino acid at position 393 (protein, listed as Homo sapiens)
chain: B2 chain with Q135N
In the case of B5, the “factor Xa inhibitory activity” value in assay [1] was “negligible”.

B6: AT-ΔR393-S394: human antithrombin with deletion of the amino acids at positions 393 and 394 (protein, listed as Homo sapiens)
chain: HGSPVDICTAKPRDIPMNPMCIYRSPEKKATEDEGSEQKIPEATNRRVWELSKANSRFATTFYQHLADSKNDNDNIFLSPLSISTAFAMTKLGACNDTLQQLMEVFKFDTISEKTSDQIHFFFAKLNCRLYRKANKSSKLVSANRLFGDKSLTFNETYQDISELVYGAKLQPLDFKENAEQSRAAINKWVSNKTEGRITDVIPSEAINELTVLVLVNTIYFKGLWKSKFSPENTRKELFYKADGESCSASMMYQEGKFRYRRVAEGTQVLELPFKGDDITMVLILPKPEKSLAKVEKELTPEVLQEWLDELEEMMLVVHMPRFRIEDGFSLKEQLQDMGLVDLFSPEKSKLPGIVAEGRDDLYVSDAFHKAFLEVNEEGSEAAASTAVVIAGLNPNRVTFKANRPFLVFIREVPLNTIIFMGRVANPCVK
Regarding B6, the “factor Xa inhibitory activity” value in assay [1] is “negligible”.
